In assay [1] the target is T1, UCH37 (Homo sapiens, strain).
T1 construct: from His8-MBP-TEV-UCH37 in pVP16 (DNASU); The purification of free UCH37 is not described; in the complexes with RPN13 the His-MBP tag was removed with TEV protease; also called UCHL5; free UCH37; source: E. coli, purified (His-MBP-TEV-UCH37 construct; individually purified for the crystal)
T1 chain: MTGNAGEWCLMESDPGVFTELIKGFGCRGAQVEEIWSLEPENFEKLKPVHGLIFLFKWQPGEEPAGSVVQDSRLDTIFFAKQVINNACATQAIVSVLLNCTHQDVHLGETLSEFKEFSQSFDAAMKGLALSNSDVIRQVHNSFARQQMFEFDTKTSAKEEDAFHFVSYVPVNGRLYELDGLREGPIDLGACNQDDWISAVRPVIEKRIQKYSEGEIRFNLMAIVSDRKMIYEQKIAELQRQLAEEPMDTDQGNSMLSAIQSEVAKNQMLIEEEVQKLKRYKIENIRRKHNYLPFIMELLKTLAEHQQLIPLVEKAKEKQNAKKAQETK
Briefly: not stated; recombinant purified Nb-v1 with free UCH37 (Supplementary Figure 2b). To be noted: both partners purified.

Assay [2] has as its target T2, UCH37•RPN13^DEUBAD (Homo sapiens, strain).
T2 construct: from His8-MBP-TEV-UCH37 in pVP16 (DNASU); RPN13 (ADRM1) DEUBAD domain, aa 253-407, cloned from His10-RPN13 in pET19b; source: E. coli BL21(DE3) pLysS, co-purified (Ni-NTA, TEV, GST resin, 3C, Superdex 200); not shown: His8, N-terminal, cleaved; MBP, N-terminal, cleaved; GST, N-terminal, cleaved
T2 chain 1: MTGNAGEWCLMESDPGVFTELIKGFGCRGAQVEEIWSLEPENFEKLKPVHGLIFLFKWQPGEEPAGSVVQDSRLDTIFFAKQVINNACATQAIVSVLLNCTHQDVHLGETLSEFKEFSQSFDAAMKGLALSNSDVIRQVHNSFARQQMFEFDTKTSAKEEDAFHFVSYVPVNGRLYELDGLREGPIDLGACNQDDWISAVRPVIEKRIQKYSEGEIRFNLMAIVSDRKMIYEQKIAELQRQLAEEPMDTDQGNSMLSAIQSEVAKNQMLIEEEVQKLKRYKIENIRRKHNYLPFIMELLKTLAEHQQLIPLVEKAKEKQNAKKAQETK
T2 chain 2: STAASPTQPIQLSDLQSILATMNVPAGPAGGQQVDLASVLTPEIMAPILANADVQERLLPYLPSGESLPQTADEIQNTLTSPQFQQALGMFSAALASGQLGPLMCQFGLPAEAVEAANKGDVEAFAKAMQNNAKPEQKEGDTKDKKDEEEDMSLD
In words: native MS; 150 mM ammonium acetate pH 6.8; UCH37•RPN13^DEUBAD variants premixed with Nb-ncS1 in equimolar ratio, 1 hour on ice; final 10 uM; nanospray, Synapt G2. The following applies: both partners purified.

The target in a further assay is T3, Ub-UCH37•RPN13^DEUBAD (Homo sapiens, strain, active site cysteine covalently linked to Ub propargylamine (Ub-PA) | C-terminal propargylamine after residue 75, linked to the active site cysteine of UCH37; biotin on the Avi tag in the …).
T3 construct: from His8-MBP-TEV-UCH37 in pVP16 (DNASU); RPN13 (ADRM1) DEUBAD domain, aa 253-407, cloned from His10-RPN13 in pET19b; ubiquitin residues 1-75 (Ub_(1-75)-propargylamine, made from Avi-Ub_(1-75)-intein); In the pull-down it was offered as a mixture with unconjugated UCH37•RPN13^DEUBAD; also called Ub conjugated UCH37•RPN13^DEUBAD; UCH37•RPN13^DEUBAD -Ub-PA; source: UCH37•RPN13^DEUBAD (E. coli, …)
Described as above. The following applies: both partners purified.

Assay [3] has as its target T1, UCH37. Briefly: SPR; BIACORE T200, His-Nb immobilised on NTA chip (about 30 RU); purified UCH37 injected, single cycle kinetics; 50 mM HEPES pH 7.5, 50 mM NaCl, 50 μM EDTA, 0.005% TWEEN 20; 25 °C; 1:1 model. The following applies: both partners purified.
For assay [4], the target named is T2, UCH37•RPN13^DEUBAD. In words: SEC-MALS; nanobodies incubated with UCH37•RPN13^DEUBAD on ice 30 min; TSKgel G3000SWXL; 50 mM sodium phosphate pH 6.5, 150 mM sodium chloride, 10% isopropanol; room temperature. The following applies: both partners purified. (Size exclusion chromatography separates by hydrodynamic size, large species first.)
The next assay addresses T4, UCH37•RPN13 (Homo sapiens, strain).
T4 construct: from His8-MBP-TEV-UCH37 in pVP16 (DNASU); RPN13 (ADRM1), His10-RPN13 in pET19b; source: E. coli BL21(DE3) pLysS, co-purified (amylose, TEV, Ni-NTA, Superdex 200); not shown: His8, N-terminal, cleaved; MBP, N-terminal, cleaved
T4 chain 1: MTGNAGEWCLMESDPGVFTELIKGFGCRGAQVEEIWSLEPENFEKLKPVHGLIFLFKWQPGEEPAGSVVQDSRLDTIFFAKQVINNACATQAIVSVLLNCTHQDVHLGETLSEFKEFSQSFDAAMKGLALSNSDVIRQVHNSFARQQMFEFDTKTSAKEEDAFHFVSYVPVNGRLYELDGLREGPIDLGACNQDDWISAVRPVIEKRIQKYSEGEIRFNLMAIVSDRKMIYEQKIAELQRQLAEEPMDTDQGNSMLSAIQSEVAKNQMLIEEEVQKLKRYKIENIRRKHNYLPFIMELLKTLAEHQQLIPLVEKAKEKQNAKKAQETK
T4 chain 2: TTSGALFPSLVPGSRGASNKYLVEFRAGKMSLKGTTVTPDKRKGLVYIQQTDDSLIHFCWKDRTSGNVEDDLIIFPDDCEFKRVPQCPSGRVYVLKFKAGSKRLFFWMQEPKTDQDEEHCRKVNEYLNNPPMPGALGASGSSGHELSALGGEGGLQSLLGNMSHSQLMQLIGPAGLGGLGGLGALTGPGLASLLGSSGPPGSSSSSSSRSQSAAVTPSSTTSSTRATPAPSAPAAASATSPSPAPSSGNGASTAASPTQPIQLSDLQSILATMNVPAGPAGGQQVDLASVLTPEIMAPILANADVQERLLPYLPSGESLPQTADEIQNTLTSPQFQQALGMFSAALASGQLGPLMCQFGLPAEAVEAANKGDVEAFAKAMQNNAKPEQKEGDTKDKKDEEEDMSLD
In words: MST; nanobody labelled with fluorescein isothiocyanate at 20 nM (Nb-ncS1) or 50 nM (Nb-cS1); UCH37•RPN13 titrated 4 μM to 0.12 nM or 46 μM to 2.8 nM; 50 mM Tris pH 7.4, 150 mM NaCl, 10 mM MgCl2, 0.05% tween-20; room temperature; 1:1 Kd fit; duplicates. The following applies: both partners purified.

The target in assay [5] is T5, UCH37 (endogenous) (Homo sapiens (HEK293FT, endogenous)).
T5 construct: endogenous UCH37 (UCHL5) of HEK293FT cells; also called UCHL5
T5 chain: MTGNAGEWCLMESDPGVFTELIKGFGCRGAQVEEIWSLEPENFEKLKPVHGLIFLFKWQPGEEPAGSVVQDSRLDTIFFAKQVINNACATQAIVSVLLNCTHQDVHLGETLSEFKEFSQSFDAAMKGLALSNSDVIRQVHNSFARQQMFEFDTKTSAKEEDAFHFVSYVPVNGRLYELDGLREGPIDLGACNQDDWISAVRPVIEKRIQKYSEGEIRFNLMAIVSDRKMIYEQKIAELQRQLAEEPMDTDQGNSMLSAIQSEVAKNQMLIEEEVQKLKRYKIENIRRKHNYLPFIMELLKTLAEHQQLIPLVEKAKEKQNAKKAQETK
In words: co-IP; WT HEK293FT transfected with HA-Flag-tagged nanobodies; anti-FLAG resin 3 hours 4 °C; lysis in 50 mM HEPES pH 7.5, 50 mM NaCl, 5 mM MgCl2, 2 mM ATP, 1 mM DTT, 10% glycerol; blots of UCH37 and proteasome subunits. To be noted: partners not purified.

The target of assay [6] is translation elongation factor EEF2 (Homo sapiens, UniProt P13639). Briefly: affinity purification with mass spectrometry; as a15, but UCH37KO HEK293FT cells. The following applies: partners not purified.
Another assay addresses T6, HSP70 chaperone HSPA1B (Homo sapiens, UniProt P0DMV9).
T6 construct: endogenous HSPA1B; source: endogenous, UCH37KO HEK293FT lysate
Described as above. To be noted: partners not purified.

The target in assay [7] is T5, UCH37 (endogenous). Briefly: affinity purification with mass spectrometry; WT HEK293FT transfected with HaloTag nanobodies; immunoprecipitation, on-bead trypsin digestion, TMT labelling; compared with Halo-Nb-ctrl. The following applies: partners not purified.

The values below come from paper doi:10.1101/2025.08.11.669711, “Site-Specific Nanobody Inhibitors of the Proteasomal Deubiquitinase UCH37” (bioRxiv, 2025).

As usually defined, the Kd is the concentration at which binding is half-saturated. In general, stoichiometry N refers to a count of units in the complex or per binding partner.

T6 sequence (P0DMV9 whole entry): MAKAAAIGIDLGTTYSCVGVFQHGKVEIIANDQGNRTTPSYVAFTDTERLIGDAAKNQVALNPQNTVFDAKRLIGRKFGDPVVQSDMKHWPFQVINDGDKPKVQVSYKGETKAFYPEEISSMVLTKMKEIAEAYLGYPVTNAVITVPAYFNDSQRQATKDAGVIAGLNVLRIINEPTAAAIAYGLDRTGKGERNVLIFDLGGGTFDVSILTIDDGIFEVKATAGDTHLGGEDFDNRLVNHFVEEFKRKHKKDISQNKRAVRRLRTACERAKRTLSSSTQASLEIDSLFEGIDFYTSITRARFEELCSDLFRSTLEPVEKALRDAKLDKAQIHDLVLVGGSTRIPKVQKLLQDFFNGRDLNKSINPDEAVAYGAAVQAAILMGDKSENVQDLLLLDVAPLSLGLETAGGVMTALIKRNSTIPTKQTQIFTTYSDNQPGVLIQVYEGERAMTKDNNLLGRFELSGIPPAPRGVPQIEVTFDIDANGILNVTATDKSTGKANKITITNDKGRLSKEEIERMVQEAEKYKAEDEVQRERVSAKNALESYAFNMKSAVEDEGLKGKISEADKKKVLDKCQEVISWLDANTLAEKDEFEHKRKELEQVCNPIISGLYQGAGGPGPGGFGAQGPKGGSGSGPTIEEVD

B1: Nb-v1 (recombinant) (VHH)
VHH: QVQLQESGGGLVQAGGSLRLSCAASGYIFRSYRMGWYRQAPGKERELVAAIGLGGNTYYADSVKGRFTISRDNAKNTVYLQMNSLKPEDTAVYYCAALHGKPPAFSPFAYWGQGTQVTVSS
notes: most enriched clone of the first yeast display selection, parent of Nb-ncS1 (Nb-ncS1 = Nb-v1 with Q1R, L80Q, H99Y, A109P); His-tagged nanobodies were made in E. coli BL21 (DE3) by the general method; source: recombinant production and purification
For B1, the Kd with UCH37 [1] turned out to be 300 pM.

B2: Nb-ncS1 (His-tagged) (VHH)
VHH: RVQLQESGGGLVQAGGSLRLSCAASGYIFRSYRMGWYRQAPGKERELVAAIGLGGNTYYADSVKGRFTISRDNAKNTVYQQMNSLKPEDTAVYYCAALYGKPPAFSPFPYWGQGTQVTVSS
notes: as the VHH of Nb-v1 with the four stated changes; Cloned into pET28b; Labelled with fluorescein isothiocyanate for MST; also called 6xHis-tagged Nb-ncS1; His-Nb; source: E. coli BL21 (DE3), purified (Ni-NTA, Superdex 75)
Regarding B2, the “stoichiometry N” value with UCH37•RPN13^DEUBAD [2] and in the assay with Ub-UCH37•RPN13^DEUBAD was 1 each time. In the assay with UCH37 [3], this molecule came in with a Kd of 125 pM.

B3: Nb-cS1 (His-tagged) (VHH)
VHH: QVQLQESGGGLVQAGGSLRLSCAASGYISRPRTMGWYRQAPGKEREFVAIISNGAITNYADSVKGRFTISRDNAKNTVYLQMNSLKPEDTAVYYCAAGRNIWHAYWGQGTQVTVSS
notes: synthetic nanobody from a yeast display library: clone Nb-v2 matured with L47F, T50I, K99R; Cloned into pET28b; Labelled with fluorescein isothiocyanate for MST; also called 6xHis-tagged Nb-cS1; cNb; source: E. coli BL21 (DE3), purified (Ni-NTA, Superdex 75)
With B3, the “stoichiometry N” value with UCH37•RPN13^DEUBAD [4] worked out at 1. For the same molecule, in the assay with UCH37•RPN13, the affinity, expressed as Kd, was 200000 pM.

B4: HA-Flag-tagged Nb-cS1 (VHH)
VHH: QVQLQESGGGLVQAGGSLRLSCAASGYISRPRTMGWYRQAPGKEREFVAIISNGAITNYADSVKGRFTISRDNAKNTVYLQMNSLKPEDTAVYYCAAGRNIWHAYWGQGTQVTVSS
notes: as the VHH of m15 (Nb-cS1); source: HEK293FT, transiently transfected (1436 pcDNA3 Flag HA vector), in lysate or in fixed cells
Turning to B4, the binding result with UCH37 (endogenous) [5] is “binds”.

B5: Halo-Nb-cS1 (expressed in cells) (VHH)
VHH: QVQLQESGGGLVQAGGSLRLSCAASGYISRPRTMGWYRQAPGKEREFVAIISNGAITNYADSVKGRFTISRDNAKNTVYLQMNSLKPEDTAVYYCAAGRNIWHAYWGQGTQVTVSS
notes: as the VHH of m15 (Nb-cS1); The authors suspect that this fusion is misfolded in human cells; also called Halo-tagged Nb-cS1; source: HEK293FT (WT or UCH37KO), transiently transfected, in lysate; not shown: HaloTag, C-terminal, kept
In the case of B5, the binding result (in assay [6]; with HSP70 chaperone HSPA1B; with UCH37 (endogenous) [7]) was “binds” in each case.
